Laboratory results published in PMC10232262.

Biological target: TRPA1 tagged with V5 and 6x histidine in the C terminus (UniProt Q8BLA8)
Test: pull-down; nickel bead (Ni-NTA) pull-down of TRPA1-V5-His from HEK293 cells; IQGAP1 detected with anti-IQGAP1; cells untreated or treated with AITC (400 uM), AITC with HC-030031 (10 uM), AITC in Ca2+-free solution, or forskolin

UniProt Q8BLA8, sequence (Q8BLA8 whole entry): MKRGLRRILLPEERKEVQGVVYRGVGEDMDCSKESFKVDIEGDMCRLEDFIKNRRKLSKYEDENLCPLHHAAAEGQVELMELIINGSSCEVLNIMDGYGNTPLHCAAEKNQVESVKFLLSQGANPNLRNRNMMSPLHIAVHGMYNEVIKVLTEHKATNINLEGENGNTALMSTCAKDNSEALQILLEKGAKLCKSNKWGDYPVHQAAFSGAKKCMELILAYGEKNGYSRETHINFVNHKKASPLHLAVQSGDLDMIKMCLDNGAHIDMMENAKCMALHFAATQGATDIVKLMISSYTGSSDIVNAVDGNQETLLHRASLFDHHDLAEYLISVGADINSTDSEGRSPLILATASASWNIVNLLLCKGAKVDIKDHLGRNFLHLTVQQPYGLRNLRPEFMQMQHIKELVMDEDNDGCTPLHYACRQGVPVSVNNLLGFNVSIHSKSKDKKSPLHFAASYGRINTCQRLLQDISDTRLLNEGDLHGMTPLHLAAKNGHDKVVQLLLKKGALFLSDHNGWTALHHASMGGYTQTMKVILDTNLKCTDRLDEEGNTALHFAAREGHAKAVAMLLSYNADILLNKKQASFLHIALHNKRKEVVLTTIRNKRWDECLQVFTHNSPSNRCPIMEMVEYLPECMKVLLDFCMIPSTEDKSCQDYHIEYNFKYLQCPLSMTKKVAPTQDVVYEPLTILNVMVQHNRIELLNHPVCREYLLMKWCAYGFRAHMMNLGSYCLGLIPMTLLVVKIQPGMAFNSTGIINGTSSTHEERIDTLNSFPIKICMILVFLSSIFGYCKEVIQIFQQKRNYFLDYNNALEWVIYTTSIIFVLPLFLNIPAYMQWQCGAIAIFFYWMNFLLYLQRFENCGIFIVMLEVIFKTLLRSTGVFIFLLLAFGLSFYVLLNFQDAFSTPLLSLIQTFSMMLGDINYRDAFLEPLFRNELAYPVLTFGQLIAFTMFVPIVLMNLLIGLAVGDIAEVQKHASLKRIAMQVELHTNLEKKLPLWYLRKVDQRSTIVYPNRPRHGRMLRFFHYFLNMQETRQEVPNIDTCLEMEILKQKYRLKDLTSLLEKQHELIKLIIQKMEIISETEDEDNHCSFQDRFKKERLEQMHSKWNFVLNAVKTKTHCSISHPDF

relative band density (basal, against wild-type IQGAP1 basal = 1.0) (relative to the first band) | Substance
1.61 | IQ motif (L700-Q905) deleted IQGAP1 (from UniProt P46940 1-1657) (natural protein)
0.53 | Cdc42 binding region (M1054-K1077) deleted IQGAP1 (from UniProt P46940 1-1657) (natural protein)
